This note sets out measurements from patent US20230220080A1 (EPIMAB BIOTHERAPEUTICS, published 2023).

One assay deals with IGF1R (UniProt P08069 31-932, limits assumed). Put plainly: method not stated.
Assay [1] addresses T1, human PD-L1, recombinant protein (human, UniProt Q9NZQ7 19-239, limits assumed).
T1 construct: also called rhPD-L1; PD-L1-his
Put plainly: method not stated.

Assay [2] concerns the target T1, human PD-L1, recombinant protein. Put plainly: method not stated. The source holds these as a separate data set.
The next assay deals with Factor IXa (UniProt P00740 47-461, limits assumed). Put plainly: method not stated.
Assay [3] addresses T2, recombinant human IL-20 (human, UniProt Q9NYY1 25-176).
T2 construct: also called rhIL-20; hIL-20
T2 sequence (looked up): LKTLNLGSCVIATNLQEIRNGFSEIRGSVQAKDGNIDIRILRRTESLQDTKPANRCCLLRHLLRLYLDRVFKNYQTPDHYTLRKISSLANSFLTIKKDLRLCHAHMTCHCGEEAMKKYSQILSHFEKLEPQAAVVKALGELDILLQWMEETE
Put plainly: SPR Biacore, Ig captured by anti-Fc, antigen injected.
Procedure: (§1) The kinetics of FIT-Ig binding to rhIL-17 and rhIL-20 was determined by surface plasmon resonance (Table 5) with a Biacore X100 instrument (Biacore AB, Uppsala, Sweden) using HBS-EP (10 mM HEPES, pH 7.4, 150 mM NaCl, 3 mM EDTA, and 0.005% surfactant P20) at 25° C. Briefly, goat anti-human IgG Fcγ fragment specific polyclonal antibody (Pierce Biotechnology Inc, Rockford, Ill.) was directly immobilized across a CM5 research grade biosensor chip using a standard amine coupling kit according to manufacturer's instructions. Purified FIT-Ig samples were diluted in HEPES-buffered saline for capture across goat anti-human IgG Fc specific reaction surfaces and injected over reaction matrices at a flow rate of 5 μl/min. The association and dissociation rate constants, kon (M-1s-1) and koff (s-1) were determined under a continuous flow rate of 30 μL/min. […] The equilibrium dissociation constant (M) of the reaction between FIT-Ig and the target proteins was then calculated from the kinetic rate constants by the following formula: KD=koff/kon. Aliquots of antigen samples were also simultaneously injected over a blank reference and reaction CM surface to record and subtract any nonspecific binding background to eliminate the majority of the refractive index change and injection noise. Surfaces were regenerated with two subsequent 25 ml injections of 10 mM Glycine (pH 1.5) at a flow rate of 10 μL/min.

For assay [4], the target named is T3, recombinant human IL-17 (human, UniProt Q16552 24-155).
T3 construct: also called rhIL-17; hIL-17
T3 sequence (Q16552 24-155 limits assumed): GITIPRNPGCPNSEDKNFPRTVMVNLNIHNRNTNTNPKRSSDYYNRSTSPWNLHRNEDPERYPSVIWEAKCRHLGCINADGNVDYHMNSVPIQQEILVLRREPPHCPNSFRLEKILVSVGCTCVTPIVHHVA
Described as above.
Procedure: as §1

The target in assay [5] is T2, recombinant human IL-20. Put plainly: cell-based or functional assay.
In assay [6] the target is T3, recombinant human IL-17. Put plainly: cell-based or functional assay.
In assay [7] the target is T4, hFactor IX (Enzyme Research Laboratory) (human, UniProt P00740 47-461).
T4 construct: also called FIX
Put plainly: SPR Biacore X100, Ig captured by anti-Fc, 500 nM antigen.
Procedure: Affinity measurement by surface plasmon resonance: The kinetics of FIT-Ig binding to hFactor IX and hFactor X (Enzyme Research Laboratory) was determined by surface plasmon resonance with a Biacore X100 instrument (Biacore AB, Uppsala, Sweden) using HBS-EP (10 mM HEPES, pH 7.4, 150 mM NaCl, 3 mM EDTA, and 0.005% surfactant P20) at 25° C. Briefly, goat anti-human IgG Fc fragment specific polyclonal antibody (Pierce Biotechnology Inc, Rockford, Ill.) was directly immobilized across a CM5 research grade biosensor chip using a standard amine coupling kit according to manufacturer's instructions. Purified FIT-Ig samples were diluted in HEPES-buffered saline for capture across goat anti-human IgG Fc specific reaction surfaces and injected over reaction matrices at a flow rate of 5 μl/min. The association and dissociation rate constants, kon (M-1s-1) and koff (s-1) were determined under a continuous flow rate of 30 μL/min. Rate constants were derived by making kinetic binding measurements at 500 nM antigen concentrations. The equilibrium dissociation constant (M) of the reaction between FIT-Ig and the target proteins was then calculated from the kinetic rate constants by the following formula: KD=koff/kon. Aliquots of antigen samples were also simultaneously injected over a blank reference and reaction CM surface to record and subtract any nonspecific binding background to eliminate the majority of the refractive index change and injection noise. Surfaces were regenerated with two subsequent 25 ml injections of 10 mM Glycine (pH 1.5) at a flow rate of 10 μL/min. The anti-Fc antibody immobilized surfaces were completely regenerated and retained their full capture capacity over twelve cycles.

A further assay concerns the target Cyno EGFR (cynomolgus, UniProt A0A2K5WK39 25-645). Put plainly: protein based binding; method not stated.

Like-named read-outs stand apart in the source and are kept apart here.

T1 sequence (Q9NZQ7 19-239 limits assumed): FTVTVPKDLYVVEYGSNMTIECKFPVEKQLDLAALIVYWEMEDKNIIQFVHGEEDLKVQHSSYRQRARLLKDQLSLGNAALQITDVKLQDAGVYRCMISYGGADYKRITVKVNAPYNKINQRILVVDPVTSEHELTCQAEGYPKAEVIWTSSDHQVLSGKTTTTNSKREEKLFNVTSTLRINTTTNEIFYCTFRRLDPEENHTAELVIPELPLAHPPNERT

B1: FIT016a HER3 (Patritumab)/IGF1R (Figitumumab) (bispecific antibody, human IgG1, kappa)
chain 1: not shown
chain 2: QVQLQQWGAGLLKPSETLSLTCAVYGGSFSGYYWSWIRQPPGKGLEWIGEINHSGSTNYNPSLKSRVTISVETSKNQFSLKLSSVTAADTAVYYCARDKWTWYFDLWGRGTLVTVSSASTKGPSVFPLAPSSKSTSGGTAALGCLVKDYFPEPVTVSWNSGALTSGVHTFPAVLQSSGLYSLSSVVTVPSSSLGTQTYICNVNHKPSNTKVDKKVEPKSC
chain 3: DIQMTQFPSSLSASVGDRVTITCRASQGIRNDLGWYQQKPGKAPKRLIYAASRLHRGVPSRFSGSGSGTEFTLTISSLQPEDFATYYCLQHNSYPCSFGQGTKLEIKRTVAAPSVFIFPPSDEQLKSGTASVVCLLNNFYPREAKVQWKVDNALQSGNSQESVTEQDSKDSTYSLSSTLTLSKADYEKHKVYACEVTHQGLSSPVTKSFNRGEC
notes: leader left out
The molecule B1 came in with a Kd with IGF1R of 2.72 nM.

B2: FIT012b-Ig EGFR (panitumumab)/PD-L1 (1B12) (bispecific antibody, human IgG1, kappa)
chain 1: not shown
chain 2: QVQLQESGPGLVKPSETLSLTCTVSGGSVSSGDYYWTWIRQSPGKGLEWIGHIYYSGNTNYNPSLKSRLTISIDTSKTQFSLKLSSVTAADTAIYYCVRDRVTGAFDIWGQGTMVTVSSASTKGPSVFPLAPSSKSTSGGTAALGCLVKDYFPEPVTVSWNSGALTSGVHTFPAVLQSSGLYSLSSVVTVPSSSLGTQTYICNVNHKPSNTKVDKKVEPKSC
chain 3: not shown
notes: leader left out
For the molecule B2, in assay [1], the Kd is 3.89 nM.

B3: FIT012d-Ig EGFR (panitumumab)/PD-L1 (10A5) (bispecific antibody)
chain 1: not shown
chain 2: QVQLQESGPGLVKPSETLSLTCTVSGGSVSSGDYYWTWIRQSPGKGLEWIGHIYYSGNTNYNPSLKSRLTISIDTSKTQFSLKLSSVTAADTAIYYCVRDRVTGAFDIWGQGTMVTVSSASTKGPSVFPLAPSSKSTSGGTAALGCLVKDYFPEPVTVSWNSGALTSGVHTFPAVLQSSGLYSLSSVVTVPSSSLGTQTYICNVNHKPSNTKVDKKVEPKSC
chain 3: not shown
notes: leader left out
With B3, the equilibrium dissociation constant (Kd) in assay [2] is 0.58 nM.

B4: FIT14-Ig Factor IXa/Factor X (bispecific antibody, human IgG4 S228P, kappa)
chain 1: DIQMTQSPSSLSASVGDRVTITCKASRNIERQLAWYQQKPGQAPELLIYQASRKESGVPDRFSGSRYGTDFTLTISSLQPEDIATYYCQQYSDPPLTFGGGTKVEIKRTVAAPSVFIFPPSDEQLKSGTASVVCLLNNFYPREAKVQWKVDNALQSGNSQESVTEQDSKDSTYSLSSTLTLSKADYEKHKVYACEVTHQGLSSPVTKSFNRGECQVQLVQSGSELKKPGASVKVSCKASGYTFTDNNMDWVRQAPGQGLEWMGDINTRSGGSIYNEEFQDRVIMTVDKSTDTAYMELSSLRSEDTATYHCARRKSYGYYLDEWGEGTLVTVSSASTKGPSVFPLAPCSRSTSESTAALGCLVKDYFPEPVTVSWNSGALTSGVHTFPAVLQSSGLYSLSSVVTVPSSSLGTQTYTCNVDHKPSNTKVDKRVESKYGPPCPPCPAPEFLGGPSVFLFPPKPKDTLMISRTPEVTCVVVDVSQEDPEVQFNWYVDGVEVHNAKTKPREEQYNSTYRVVSVLTVLHQDWLNGKEYKCKVSNKGLPSSIEKTISKAKGQPREPQVYTLPPSQEEMTKNQVSLTCLVKGFYPSDIAVEWESNGQPENNYKTTPPVLDSDGSFFLYSKLTVDKSRWQEGNVFSCSVMHEALHNHYTQESLSLSP
chain 2: QVQLVESGGGLVQPGGSLRLSCAASGFTFSYYDIQWVRQAPGKGLEWVSSISPSGQSTYYRREVKGRFTISRDNSKNTLYLQMNSLRAEDTAVYYCARRTGREYGGGWYFDYWGQGTLVTVSSASTKGPSVFPLAPSSKSTSGGTAALGCLVKDYFPEPVTVSWNSGALTSGVHTFPAVLQSSGLYSLSSVVTVPSSSLGTQTYICNVNHKPSNTKVDKKVEPKSC
chain 3: DIQMTQSPSSLSASVGDRVTITCKASRNIERQLAWYQQKPGQAPELLIYQASRKESGVPDRFSGSRYGTDFTLTISSLQPEDIATYYCQQYSDPPLTFGGGTKVEIKRTVAAPSVFIFPPSDEQLKSGTASVVCLLNNFYPREAKVQWKVDNALQSGNSQESVTEQDSKDSTYSLSSTLTLSKADYEKHKVYACEVTHQGLSSPVTKSFNRGEC
notes: leader left out; also called FIT-Ig 014; FIT-Ig 14
Consider B4, for which the Kd with Factor IXa worked out at 9.9 nM.

B5: Anti-IL-17/IL-20 FIT1-Ig (bispecific antibody, human IgG1, kappa)
chain 1: not shown
chain 2: QVQLVQSGAEVKKPGSSVKVSCKASGYSFTDYHIHWVRQAPGQGLEWMGVINPMYGTTDYNQRFKGRVTITADESTSTAYMELSSLRSEDTAVYYCARYDYFTGTGVYWGQGTLVTVSSASTKGPSVFPLAPSSKSTSGGTAALGCLVKDYFPEPVTVSWNSGALTSGVHTFPAVLQSSGLYSLSSVVTVPSSSLGTQTYICNVNHKPSNTKVDKKVEPKSC
chain 3: not shown
notes: three-polypeptide FIT-Ig, no linker, human IgG1 Fc; described as tetravalent, so two copies of each chain
B5: in the assay with recombinant human IL-20 [3], the Kd was found to be 0.0273 nM, the koff stood at 3.82e-05 s⁻¹ and the kon stood at 1.4e+06 M⁻¹ s⁻¹. For the same molecule, in the assay with recombinant human IL-17 [4], the Kd worked out at 0.00364 nM, the koff worked out at 3.88e-05 s⁻¹ and the kon came to 1.07e+07 M⁻¹ s⁻¹. The “Neutralization Potency IC50 (IL-20R+ BAF3 cell proliferation)” value in the assay with recombinant human IL-20 [5] came out at 0.054 nM. Besides, the “Neutralization Potency IC50 (GROα production by Hs27 cells)” value in the assay with recombinant human IL-17 [6] amounted to 0.102 nM.

B6: Anti-IL-17/IL-20 FIT2-Ig (bispecific antibody, human IgG1, kappa)
chain 1: not shown
chain 2: QVQLVQSGAEVKKPGSSVKVSCKASGYSFTDYHIHWVRQAPGQGLEWMGVINPMYGTTDYNQRFKGRVTITADESTSTAYMELSSLRSEDTAVYYCARYDYFTGTGVYWGQGTLVTVSSASTKGPSVFPLAPSSKSTSGGTAALGCLVKDYFPEPVTVSWNSGALTSGVHTFPAVLQSSGLYSLSSVVTVPSSSLGTQTYICNVNHKPSNTKVDKKVEPKSC
chain 3: not shown
notes: three-polypeptide FIT-Ig with GSG linker; tetravalent
In the case of B6, in the assay with recombinant human IL-20 [3], the Kd turned out to be 0.0195 nM, the koff is 3.5e-05 s⁻¹ and the kon came to 1.8e+06 M⁻¹ s⁻¹. Also, in the assay with recombinant human IL-17 [4], the Kd was found to be 0.00165 nM, the koff is 1.53e-05 s⁻¹ and the kon amounted to 9.24e+06 M⁻¹ s⁻¹. Besides, the “Neutralization Potency IC50 (IL-20R+ BAF3 cell proliferation)” value with recombinant human IL-20 [5] came out at 0.05 nM. Also, the “Neutralization Potency IC50 (GROα production by Hs27 cells)” value with recombinant human IL-17 [6] is 0.137 nM.

B7: Anti-IL-17/IL-20 FIT3-Ig (bispecific antibody, human IgG1, kappa)
chain 1: not shown
chain 2: QVQLVQSGAEVKKPGSSVKVSCKASGYSFTDYHIHWVRQAPGQGLEWMGVINPMYGTTDYNQRFKGRVTITADESTSTAYMELSSLRSEDTAVYYCARYDYFTGTGVYWGQGTLVTVSSASTKGPSVFPLAPSSKSTSGGTAALGCLVKDYFPEPVTVSWNSGALTSGVHTFPAVLQSSGLYSLSSVVTVPSSSLGTQTYICNVNHKPSNTKVDKKVEPKSC
chain 3: not shown
notes: three-polypeptide FIT-Ig with GGGGSGS linker; tetravalent
Turning to B7, in the assay with recombinant human IL-20 [3], the Kd was 0.0273 nM, the koff is 3.82e-05 s⁻¹ and the kon is 1.4e+06 M⁻¹ s⁻¹. For the same molecule, in the assay with recombinant human IL-17 [4], the Kd worked out at 0.0011 nM, the koff amounted to 9.58e-06 s⁻¹ and the kon is 8.71e+06 M⁻¹ s⁻¹. Further, the “Neutralization Potency IC50 (IL-20R+ BAF3 cell proliferation)” value in the assay with recombinant human IL-20 [5] worked out at 0.072 nM. For the same molecule, in the assay with recombinant human IL-17 [6], the “Neutralization Potency IC50 (GROα production by Hs27 cells)” value was determined as 0.146 nM.

B8: IGF-1R antibody Figitumumab (antibody, V domains shown)
VH: EVQLLESGGGLVQPGGSLRLSCTASGFTFSSYAMNWVRQAPGKGLEWVSAISGSGGTTFYADSVKGRFTISRDNSRTTLYLQMNSLRAEDTAVYYCAKDLGWSDSYYYYYGMDVWGQGTTVTVSS
VL: DIQMTQFPSSLSASVGDRVTITCRASQGIRNDLGWYQQKPGKAPKRLIYAASRLHRGVPSRFSGSGSGTEFTLTISSLQPEDFATYYCLQHNSYPCSFGQGTKLEIK
notes: parental mAb
B8 came in with a Kd in the assay with IGF1R of 0.729 nM.

B9: anti-hIL-20 mAb (clone 15D2) (antibody, V domains shown)
VH: QVQLVQSGAEVKRPGASVKVSCKASGYTFTNDIIHWVRQAPGQRLEWMGWINAGYGNTQYSQNFQDRVSITRDTSASTAYMELISLRSEDTAVYYCAREPLWFGESSPHDYYGMDVWGQGTTVTVSS
VL: AIQLTQSPSSLSASVGDRVTITCRASQGISSALAWYQQKPGKAPKLLIYDASSLESGVPSRFSGSGSGTDFTLTISSLQPEDFATYYCQQFNSYPLTFGGGTKVEIK
notes: parental mAb
As for B9, in the assay with recombinant human IL-20 [3], the Kd stood at 0.05 nM, the koff amounted to 8.3e-05 s⁻¹ and the kon was found to be 1.7e+06 M⁻¹ s⁻¹. The “Neutralization Potency IC50 (IL-20R+ BAF3 cell proliferation)” value in the assay with recombinant human IL-20 [5] was determined as 0.05 nM.

B10: Factor IXa mAb (antibody, V domains shown)
VH: QVQLVESGGGLVQPGGSLRLSCAASGFTFSYYDIQWVRQAPGKGLEWVSSISPSGQSTYYRREVKGRFTISRDNSKNTLYLQMNSLRAEDTAVYYCARRTGREYGGGWYFDYWGQGTLVTVSS
VL: DIQMTQSPSSLSASVGDRVTITCKASRNIERQLAWYQQKPGQAPELLIYQASRKESGVPDRFSGSRYGTDFTLTISSLQPEDIATYYCQQYSDPPLTFGGGTKVEIK
notes: parental mAb; also called Factor IX mAb; mAb FIX
Turning to B10, in the assay with Factor IXa, the affinity, expressed as Kd, was 13 nM and the kon is 27400 M⁻¹ s⁻¹. In assay [7], this molecule yielded a dissociation constant (Kd) of 13 nM, a koff of 0.000355 s⁻¹ and a kon of 27400 M⁻¹ s⁻¹.

B11: EGFR antibody Panitumumab (antibody, V domains shown)
VH: QVQLQESGPGLVKPSETLSLTCTVSGGSVSSGDYYWTWIRQSPGKGLEWIGHIYYSGNTNYNPSLKSRLTISIDTSKTQFSLKLSSVTAADTAIYYCVRDRVTGAFDIWGQGTMVTVSS
VL: DIQMTQSPSSLSASVGDRVTITCQASQDISNYLNWYQQKPGKAPKLLIYDASNLETGVPSRFSGSGSGTDFTFTISSLQPEDIATYFCQHFDHLPLAFGGGTKVEIK
notes: parental mAb
In the assay with Cyno EGFR, B11 gave a Kd of 0.362 nM.

B12: PD-L1 antibody 10A5 (antibody, V domains shown)
VH: QVQLVQSGAEVKKPGASVKVSCKASGYTFTSYDVHWVRQAPGQRLEWMGWLHADTGITKFSQKFQGRVTITRDTSASTAYMELSSLRSEDTAVYYCARERIQLWFDYWGQGTLVTVSS
VL: DIQMTQSPSSLSASVGDRVTITCRASQGISSWLAWYQQKPEKAPKSLIYAASSLQSGVPSRFSGSGSGTDFTLTISSLQPEDFATYYCQQYNSYPYTFGQGTKLEIK
notes: parental mAb
Consider B12, for which the Kd in assay [2] was determined as 0.735 nM.
